These results are taken from patent publication US20260035452A1, “NOVEL INTERLEUKIN-17A (IL-17A)-DERIVED PEPTIDE AND NEUTRALIZING ANTIBODY (AB17-IPL-1)” (THE UNIVERSITY OF BIRMINGHAM, priority 2022, published 2026).

In this experiment the target is IL-17 (used on human synovial fibroblasts, Example 9). Kind of experiment: cell-based or functional assay.

MAB421 (antibody): the IL-6 production by human RA fibroblasts stimulated with IL-17 (10 ng/ml) and TNF-α (100 U/ml); 3662.05 µg/ml without antibody; antibody at 10 µg/ml came out at 2320 µg/mL.
